Experimental data: the supplement of paper PMC9170038

Test system: MS2 coat protein
Test: apparent KD of MS2 coat protein; designed switch direction (-1 OFF switch, 1 ON switch): 1; higher = weaker reporter binding
Outline: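 The buffer was Tris-HCl pH 7.5 with KCl, MgCl2, BSA, DTT, tRNA and Tween-20. In it, SNAP-549-labelled MS2 coat protein was titrated in doubling steps from 0.7 or 1.5 nM to 3 µM over chip-bound RNA switches transcribed by stalled E. coli RNA polymerase on Illumina chips. Apparent KD is the per-design median over clusters of curve fits to normalised fluorescence.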

[1] = Eterna round: R95, input ligand: FMN 200 uM
[2] = Eterna round: R95, input ligand: microRNA oligo, concentration not stated
[3] = Eterna round: R95, input ligand: none
[4] = input ligand: microRNA oligo, concentration not stated

Sequence | apparent KD of MS2 coat protein [1] [nM] | apparent KD of MS2 coat protein [2] [nM] | apparent KD of MS2 coat protein [3] [nM] | apparent KD of MS2 coat protein (input ligand: FMN 200 uM) [nM] | apparent KD of MS2 coat protein [4] [nM] | apparent KD of MS2 coat protein (input ligand: none) [nM]
AACAAUCUAUCUGAGGAUAUCAUGAAAUAAACAUGAGGAUCACCCAUGUGCAGGAAAACUGCUUAUGAGAAGGCAGAUAGAUUGA [salish99_ss2_r3_047] (puzzle: Same State 2) | 10.3 | 12.6 | 12.2 |  |  | 
UUUCGAUAGAUAGGAUAUCACCUUACAUGAGGAUCACCCAUGUUGGCCGUGCUGGUUAUUCAUACUGAGAAGGAUCUUGAUGAC [JR_SSNG2_Sub004] (Eterna round: R96, puzzle: Same State NG 2) |  |  |  | 39.4 | 37 | 45
AAUUAAGAUCAAGGAUAUCACGUCGAUUAGACGUGAGAAGGUGAUAAUUACAUGAGGAUCACCCAUGUAUAACAUGAAUUAAUU [SSNG1/9-B2] (Eterna round: R96, puzzle: Same State NG 1) |  |  |  | 31.8 | 23.9 | 33.5
GCAGAACAUGAGGAUCACCCAUGUCUCUAAUAUCGAGGAUAUGGGCAGGGUAUAUCCCAACCAGAAGGCGAACUGC [SS1 Teenbexe 14] (puzzle: Same State 1) | 51.7 | 140 | 205 |  |  | 
GGAGAGAGAGCACAGGAUAUGCGAGGAGAGACAUGAGGAUCACCCAUGUAAGAGAGAGAGGAGAGGUAGAAGGGUGAGAGAGAGG [Altered State 2-21 - Jieux - Same State 2] (puzzle: Same State 2) | 150 | 62.7 | 92.3 |  |  | 
UGGCUGGUGCUAGGAUAUGCAUGAGGAAUCCUCGUAGAAGGAGCACGACAUGAGGAUCACCCAUGUAGCCGUCCGUAGACGGCU [salish99_SSNG1_r04_009] (Eterna round: R96, puzzle: Same State NG 1) |  |  |  | 98.7 | 26.3 | 91.8
GUUACAUGAGGAUCACCCAUGUAUGUGUGGGAGUAAGUGUCUUAGGAUAUCUAUUAUGUAAAUUAAGAGAAGGAAGAUUGUUGU [JMF's solution 17] (Eterna round: R96, puzzle: Same State NG 3) |  |  |  | 160 | 222 | 262
AGAGAACAUGAGGAUCACCCAUGUGGGAUGGGCAUAGGAUAUAGAGGAGAGAGGGAGGAACUAGAAGGAUGAUGGA [JR_SS1_Sub079] (puzzle: Same State 1) | 43 | 103 | 50.3 |  |  | 
GGUAGGUUACUACCAAACAUGAGGAUCACCCAUGUAAGUGGGAAGGAUAUGGUACCGUUUCGGUACCAGAAGGUCCAUAUAGUA [JL Fiskers NG3ss - 2 mod 11] (Eterna round: R96, puzzle: Same State NG 3) |  |  |  | 232 | 658 | 1530
GGACCCUUCGGAGGAUAUUCUCAGUAACAGUAAGAAGAAGGCCGUAAGUCAUACGCGCGUUACAUGAGGAUCACCCAUGUGUGG [Eternabot solution 47] (Eterna round: R96, puzzle: Same State NG 1) |  |  |  | 149 | 150 | 333
GUAAAACAUGAGGAUCACCCAUGUCAACAAAGUCGAGGAUAUGGGCAAAUAAAAUAAGAACCAGAAGGCGAAUAAC [salish99_SS1_r3_010] (puzzle: Same State 1) | 45.8 | 377 | 371 |  |  | 
AGUCCAGCAUGAGCUGGACAAAAGCAUGUACAUGAGGAUCACCCAUGUUCAUGUACAAGCUUUUUGCUCGUCUUAAU [Mat - hsa-mir-208a - Mod of JL - 61] (puzzle: Sensor for hsa-mir-208a) | 549 | 15.9 | 698 |  |  | 
UUGCUCGUGUGAGGAUAUGCCGCCGUUUCGGCUGCAGAAGGUACUCUGUUACAUGAGGAUCACCCAUGUCUCUGUUGUUUCGUG [salish99_SSNG1_r04_939] (Eterna round: R96, puzzle: Same State NG 1) |  |  |  |  | 34.7 | 
UUUGAAUUGCAAGGAUAUUGAUAACAUGAGGAUCACCCAUGUAAUUGUUCGAGUUAGAUUAGUUACAAGAAGGUGCUAUUGUUU [JR_SSNG2_Sub039] (Eterna round: R96, puzzle: Same State NG 2) |  |  |  | 385 | 165 | 287
AGUCGAGCCUGAGCUCGACAAAAGCAUGUACAUGAGGAUCACCCAUGUCAUGUACAAGCUUUUUGCUCGUCUUAAAA [Mat - hsa-mir-208a - Mod of JL - D19] (puzzle: Sensor for hsa-mir-208a) | 238 | 13.5 | 264 |  |  | 
